Assay results published in PMC5296750.
Where “and” joins values, the source holds several entries; their conditions need not be identical. Equal entries are not always repeated.

Key:
[1] = target: Pyrococcus abyssi minichromosome maintenance protein (PabMCM), full-length, devoid of inteins (Pyrococcus abyssi); assay: cryo-EM, reference-free 2D classification; Quantifoil grids with thin carbon, plunge-frozen; ~33,000 particles, Relion 2D classification without imposed symmetry
[2] = target: Pyrococcus abyssi minichromosome maintenance protein (PabMCM), full-length, devoid of inteins (Pyrococcus abyssi); assay: negative-stain electron microscopy with single particle analysis; 1% uranyl acetate, FEI F20 FEG, 50,000x, MSA classification (IMAGIC-5), 3D reconstruction with EMAN2; map at 22 Å
[3] = target: Pyrococcus abyssi minichromosome maintenance protein (PabMCM), full-length, devoid of inteins (Pyrococcus abyssi); assay: SEC; Superose 6 10/300 GL, 20 mM HEPES pH 7.4, 150 mM NaCl, 0.3 ml/min; apparent molecular weight estimated against gel-filtration standards

stoichiometry N [1]: 8
stoichiometry N [2]: 8 and 7
stoichiometry N [3]: 8
Substance: Pyrococcus abyssi minichromosome maintenance protein (PabMCM), full-length, devoid of inteins (enzyme)
